# The nanobody polyreactivity screen of Harvey et al. (2022)
# Experiment: yeast display, Sf9 membrane polyspecificity reagent, FACS + sequencing; frameworks hold sequencing errors
# In short: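 Galactose-induced (36–48 hours) yeast carrying a synthetic nanobody display library were exposed to 10% biotinylated, detergent-solubilized Sf9 membrane reagent at 4 °C for 1 hour. FACS followed streptavidin microbead enrichment, using low and high (top ~1%) gates for expression (anti-HA) and reagent binding (streptavidin). Colony PCR, MiSeq 2 × 250 sequencing and CDR-length filtering followed. Labels for polyreactivity reflect the gate of origin.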
row,Sequence,polyreactivity (PSR sort gate)
1,QVQLVESGGGLVQAGGSLRLSCAASGRIFRYNGMGWYRQAPGKERELVAVITPRSGTTSYADSVKGRFTISRDNAKNTVYLQMNSLKPEDTAVYYCAADSDWYPSPYDYWGQGTQVTVSS,high polyreactivity
2,QVQLVESGGGLVQAGGSLRLSCAASGRIFRYNIMGWYRPAPGKERELVAAIRQIGGSTYYADSVKGRFTISRDNAKNTVYLQMNSLKPEDTAVYYCAADSTVEATPFFVEYDYWGQGTQVTVSS,low polyreactivity
3,QVQLVESGGGLVQAGGSLRLSCAASGRIFRYYAIGWYRQAPGKERELVAVITSSGGSTYYADSVKGRFTISRDNAKNTVYLQMNSLKPEDTAVYYCAKDHRSYWGQGTQVTVSS,high polyreactivity
4,QVQLVESGGGLVQAGGSLRLSCAASGRIFRYYAKGWYRQAPGKERELVAAIRSASSTYYADSVKGRFTISRDNAKNTVYLQMNSLKPEDTAVYDCAAGLYGVYNRRYYYWGQGTQVTVSS,high polyreactivity
5,QVQLVESGGGLVQAGGSLRLSCAASGRIFRYYAMGWYRKAPGKERELVASISQRGGSTYYADSVKGRFTISRDNAKNTVYLQMNSLKPEDTAVYYCAARRSTVFILDYDWGQGTQVTVSS,high polyreactivity
6,QVQLVESGGGLVQAGGSLRLSCAASGRIFRYYAMGWYRPAPGKERELVAAITWRGDSTYYADSVKGRFTISRDNAKNTVYLQMNSLKPEDTAVYYCNKRWTDKYDSWGQGTQVTVSS,high polyreactivity
7,QVQLVESGGGLVQAGGSLRLSCAASGRIFRYYAMGWYRQAPGKEMELVAAITRGGSTNYADSVKGRFTISRDNAKNTGYLQMNSLKPEDTAVYYCATRQSWYPRWMDYWGQCTQVTVSS,high polyreactivity
8,QVQLVESGGGLVQAGGSLRLSCAASGRIFRYYAMGWYRQAPGKEREFVAAINSSGVNTYYADSVKGRFTISRDNAKNTVYLQMNSLKPEDTAVYYCAADWYQWGGRYYAPRYYYWGQGTQVTVSS,high polyreactivity
9,QVQLVESGGGLVQAGGSLRLSCAASGRIFRYYAMGWYRQAPGKERELVAAINWGGGSTYYADSVKGRFTISRDNAKNTVYLQMNSLKPEDTAVYYCNRDRNSFPHYFSHYGYWGQGTQVTVSS,high polyreactivity
10,QVQLVESGGGLVQAGGSLRLSCAASGRIFRYYAMGWYRQAPGKERELVAAISDSSGSTYYADSVKGRFTISRDNAKNSVYLQMNCLKPEDTAVYYCRYYFGSGYYYWGEGTQVTVSS,high polyreactivity
11,QVQLVESGGGLVQAGGSLRLSCAASGRIFRYYAMGWYRQAPGKERELVAAISKSGGSTYYADSVKGRFTISRDNAKNTVYFQMNSLKPEDTGVYYCNARSRLGGLYEYWGQGTQVTVSS,high polyreactivity
12,QVQLVESGGGLVQAGGSLRLSCAASGRIFRYYAMGWYRQAPGKERELVAAISWSGTSTYYADSVKGRFTISRDNAKNTVYLQMNSLKPEDTAVYYCAKVGYQYATYRSDYWGQGTQVTVSS,high polyreactivity
13,QVQLVESGGGLVQAGGSLRLSCAASGRIFRYYAMGWYRQAPGKERELVAAISYSGGRTYYADSVKGRFTISRDNAKNTVYLQMNSLKPEDTAVYYCARFWHSQSSYVPFDSWGQGTQVTVSS,high polyreactivity
14,QVQLVESGGGLVQAGGSLRLSCAASGRIFRYYAMGWYRQAPGKERELVAAISYSTGGTYYADSVKGRFTISRDNAKNTVYLQMNSLKPEDTAVYYCATSAYQIYPRYGYWGQGTQVTVSS,high polyreactivity
15,QVQLVESGGGLVQAGGSLRLSCAASGRIFRYYAMGWYRQAPGKERELVAAITQRGGSTYADSVKGRFTISRDNAKNTVYLQMNSLKPEDTAVYYCAYRGSFLYDYWGQGTQVTVSS,low polyreactivity
16,QVQLVESGGGLVQAGGSLRLSCAASGRIFRYYAMGWYRQAPGKERELVAAITWRGDSTYYADSVKGRFTISRDNAKNTVYLQMNSLKPEDTAVYYCNKRWTDKYDSWGQGTQVTVSS,high polyreactivity
17,QVQLVESGGGLVQAGGSLRLSCAASGRIFRYYAMGWYRQAPGKERELVAGITIGGSTNYADSVKGRFTISRDNAKNTVYLLMISLKPEDTAVYYCAAVQHDENEYWGQGTQVTVSS,low polyreactivity
18,QVQLVESGGGLVQAGGSLRLSCAASGRIFRYYAMGWYRQAPGKERELVATIRSGGSTNYADSVKGRFTISRDNAKNTVYLQMNSLKPEDTEVYYCAATGGILSTYDYWGLGTQVTVSS,high polyreactivity
19,QVQLVESGGGLVQAGGSLRLSCAASGRIFRYYAMGWYRQAPGKERELVGSITYSGGRTNYADSVKGRFTISRDNAKNTVYLQMNSLKPEDTAVYYCNAAYVYYYPHYRYAPTAVDYDYWGQGTQVTVSS,low polyreactivity
20,QVQLVESGGGLVQAGGSLRLSCAASGRIFRYYAMVWYRQAPRKERELVAGITRGGTTNYADSVKGRFTISRDNAKNTVYLQMNSLKPEDTAVYYCAADTRRGIIGYDYWGQGTQVTVSS,high polyreactivity
21,QVQLVESGGGLVQAGGSLRLSCAASGRIFRYYVMGWYRQAPGKERELVAAISRSGGTTYYADSVKGRFTISRDTATNTVYLQMNSLKREDTAVFYCAAVYGRDPGDYWGQGTQVTVSS,high polyreactivity
22,QVQLVESGGGLVQAGGSLRLSCAASGRIFSAYAMGWYRQAPGKERELVAAISRSGGRTYYADSVKGRFTISRDNAKNTVYLQMNSLKPEDTAVYYCAAARFAIVRGDYWGQGTQVTVSS,high polyreactivity

row,Sequence,polyreactivity (PSR sort gate)
1,QVQLVESGGGLVQAGGSLRLSCAASGRIFSAYAMGWYRQAPGKERELVAAISSGGRTYYADSVKGRFTISRDNAKNTVYLEMYRLKPEDTAVYFCNAVALWGRDYGYWGQGTQVSVSS,high polyreactivity
2,QVQLVESGGGLVQAGGSLRLSCAASGRIFSAYAMGWYRQAPGKERELVAVISSGDSTNYADSVKGRFTISRDNAKNTVYLQMNSLKPEDTAVYYCNARGKHRYGFRSHVGNEYWGQVTQVTVSS,low polyreactivity
3,QVQLVESGGGLVQAGGSLRLSCAASGRIFSDYAMGWYRQAPGKERELVAAISRSGTRTYYADSVKGRFTISRDNAKNTVYLQMNSLKPEDTAVYYCAAKTPYGRAGQEEDYWGQGTQVTVSS,high polyreactivity
4,QVQLVESGGGLVQAGGSLRLSCAASGRIFSEYALGWYRQAPGKERELVAAITRRGGSTYYADSVKGRFTISRYNAKNTVYLQMNSLKPEDTAVYYCNALLTGGYQDSYPADYWGQGTQVTVSS,high polyreactivity
5,QVQLVESGGGLVQAGGSLRLSCAASGRIFSFNAMGWYRQAPGKERELVAAISWSTGSTFYADSVKGRFTISRDNAKNTVYLQMNSLKPEDTAVYYCATGFPHPKRNVNRRNYWGQGTQVTVSS,high polyreactivity
6,QVQLVESGGGLVQAGGSLRLSCAASGRIFSFNAMGWYRQAPGKERELVAGITYGGNTYYADSVKGRFTISRDNAKNTVYLQMNSLKPEDTAVYYCAAVRGGRHDYWGQGTQVTVSS,low polyreactivity
7,QVQLVESGGGLVQAGGSLRLSCAASGRIFSFSAMGWYRQAPGKERELVAAISYSGGRTYYADSGKGRFTISRDNAKNTVYLQMNSLKPDDTAVYDCNAGRVLRLAYNYWGQGTQVTVSS,low polyreactivity
8,QVQLVESGGGLVQAGGSLRLSCAASGRIFSFYTMGWSRQAPGKERELVAAISNVGGTDYADSVKGRFTISRDNAKNTVYLQMNSLKPEDTAVYYCHAAWGRYFRYRWYTNGLDYWGQGTQVTVSS,low polyreactivity
9,QVQLVESGGGLVQAGGSLRLSCAASGRIFSGNAMGWYRQAPGKERELVANITSSSNTNYADSVKGRFTISRDNAKNTVYLQMNSLKPEDTAVYYCAKSAHNGYSFYGYDYWGQGTQVTVSS,low polyreactivity
10,QVQLVESGGGLVQAGGSLRLSCAASGRIFSGNGMGWYRQAPGKEREFVAAIRFSSGSTYYADSVKGRFTISRDNAKNTVYLQMNSLKPEDTAVYYCARPSIPRRYDYWGQGTQVTVSS,high polyreactivity
11,QVQLVESGGGLVQAGGSLRLSCAASGRIFSGYAMGWDRQAPGKERELVAAISSTGGTYYADSVKGRFTISRDNAKNTVYLQMNSLKPEDTAVYYCAADTYGYQGSAGGHWGQGTQVTVSS,low polyreactivity
12,QVQLVESGGGLVQAGGSLRLSCAASGRIFSGYAMGWYRQAPGKEMELVAAISNSGASTYYADSVKGRFTISRDNAKNTVYLQMNSLKPEDTAVYYCAASGRVYSSGYDYWGQGTQVTVSS,high polyreactivity
13,QVQLVESGGGLVQAGGSLRLSCAASGRIFSGYAMGWYRQAPGKERELVAAITSGASTNYADSVKGRFTISRDNAKNTVYLQMNSLKPEDTAVYYCNKKRTADYDYWGQGTQVTVSS,low polyreactivity
14,QVQLVESGGGLVQAGGSLRLSCAASGRIFSGYAMGWYRQAPGKESELVAAITSRSGSTYYADSVKARFTISRDNAKNTVYLQMNSLKPEDTAVYYCDAEYVRFYWYTSDYWGQGTQVTVSS,low polyreactivity
15,QVQLVESGGGLVQAGGSLRLSCAASGRIFSHYAMGWYRQAPGKERELVAAITWSGGRTYYADSVKGRFTISRDNAKNTVYLQMNSLKPEDTAVYYSAADREARYPVEYGYWGQGTQVTVSS,low polyreactivity
16,QVQLVESGGGLVQAGGSLRLSCAASGRIFSINVKGWYRHAPGKERELVAAISKRGGSTYYADSVKGRFTISRDNAKNTVYLQMNSLKPEDTAVYYCAARRHYTYGNGPSRGGQMDYWGQGTQVTVSS,high polyreactivity
17,QVQLVESGGGLVQAGGSLRLSCAASGRIFSIYGMGWYRQAPGKERELVAVISGSVGITYYADSVKGRFTISRDNAKNTVYLQMNSLKPEDTAVYYSNAKVRRRKYDYWGQGTQVTVSS,high polyreactivity
18,QVQLVESGGGLVQAGGSLRLSCAASGRIFSKNAMGWYRQAPGKERELVAAIDSSGDSTNYADSVKGRFTISRDNAKNTVYLQMNSLKTEDTAVYYCAATLGYRWSGFEYWGLGTQVTVSS,high polyreactivity
19,QVQLVESGGGLVQAGGSLRLSCAASGRIFSKYAMGWYRQAPGKERELVASIRWRGDRTYYADSVKGRFTISRDNAKNTVYLQMNSLKTEDTAVYYCAADEPGYGVGYWTYPVVPYDYWGQGTQVTVSS,low polyreactivity
20,QVQLVESGGGLVQAGGSLRLSCAASGRIFSLNAMGWYRQAPGKERELVAGIRKSGGSTYYADSVKGRFTISRDNAKNTVYLQMNSLKPEDTAVYYCAAQPALTYRFYYWGQGTQVTVSS,high polyreactivity
21,QVQLVESGGGLVQAGGSLRLSCAASGRIFSLYAMGWYRPAPGKEMELVAAITGIGGSTYYADSVKGRFTISRDNAKNTVYLQMNSLKPDDTAVYYCAARYPATYPSMGYWGQGTQLTVSS,low polyreactivity
